Experimental data taken from patent US20250101137A1 (TRUSTEES OF TUFTS COLLEGE, published 2025).

B1: ciB-H11 (VHH)
VHH: QVQLVETGGGLVQAGGSLRLSCAGSGRSFSAAVMGWFRQAPGKEREFVAALRQIIGSTHYADSVKGRFTISRDNAKNMLYLDMNSLKPTDTAAYYCTAGPPTMLDVSTDREYDTWGQGTQVTVSS
B2: ciB-B9 (VHH)
VHH: TGGGLVQAGGSLRLSCTASGRTSSFYALAWFRQGPGKEREFVAAIGWIDGSTRYTDSAKGRFTISRDAAKNTMYLQMNSLKPEDTAVYSCTARTQYGGSSADPKNYGYWGQGTQVTVSA
B3: scFv #7 (scFv)
scFv: SYELTQPPSMSVALGQTAKVTCQGDNLENFYVQWHQQKPGQAPVTVIFQDNKRPSGIPDRFSGSNSGNTATLTISGARTEDEADYYCQSGHSSIGGVFGSGTSLTVLGQPAAAGGGGSGGGGSGGGGSARQVQLQESGPSLVKPSQTLSLTCTVSGFSLTGNSVTWVRQAPGNVPEWLGGISRGGRTYYDTALKSRLSITRDTSKRQVSLSLSSVTTEDTAMYFCARSAYSTLYDYEYAADIYDWGPGLLVTVSSTSGAPVPYPDPLEPRAA

How the values were obtained:
[1] = target: Botulinum neurotoxin serotype B (BoNT/B) holotoxin (Clostridium botulinum, UniProt P10844); test: SPR; immobilised form of BoNT/B not stated
[2] = target: Botulinum neurotoxin serotype A1 (BoNT/A) holotoxin (Clostridium botulinum, UniProt P0DPI0); test: method not stated

Row | Binder | Kd [1] [nM] | Kd [2] [nM]
1 | B1 | 0.26 | –
2 | B2 | 23 | –
3 | B3 | – | ~1
